Results on two molecules are retold here after paper PMC12343034, “ArnR binds a [4Fe–4S] cluster and indirectly senses anaerobicity in Corynebacteria”.

Data set [1] deals with T1, ArnR ([4Fe-4S] form) (Corynebacterium glutamicum ATCC 13032, UniProt Q8NR72 1-230).
T1 sequence: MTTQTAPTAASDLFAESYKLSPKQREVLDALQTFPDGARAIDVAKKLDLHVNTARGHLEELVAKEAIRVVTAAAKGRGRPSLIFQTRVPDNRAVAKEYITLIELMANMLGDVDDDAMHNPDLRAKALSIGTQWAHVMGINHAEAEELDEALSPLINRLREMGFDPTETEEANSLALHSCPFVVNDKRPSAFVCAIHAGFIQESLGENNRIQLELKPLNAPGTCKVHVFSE
Briefly: EMSA; [4Fe-4S]; maximal binding at ~315 nM [4Fe-4S] (~32-fold over DNA); SPR: HBS+P (10 mM HEPES, 150 mM NaCl, surfactant P20) with 1 mM DTT, pH 7.4, 25 C, anaerobic; EMSA: 10 mM Tris, 54 mM KCl, 0.3% glycerol, pH 7.5, on ice; native MS: DNA in 100 mM ammonium acetate, pH 8. The settings on record: protein: recombinant; tags: C-terminal His; chain copies: 2; label: 5' 6-FAM on strand 1; blunt.

The target of data set [2] is T1, ArnR ([4Fe-4S] form). Description: native MS; [4Fe-4S], two clusters per dimer; complex at 71438 Da; [4Fe-4S]:[DNA] ~1; SPR: HBS+P (10 mM HEPES, 150 mM NaCl, surfactant P20) with 1 mM DTT, pH 7.4, 25 C, anaerobic; EMSA: 10 mM Tris, 54 mM KCl, 0.3% glycerol, pH 7.5, on ice; native MS: DNA in 100 mM ammonium acetate, pH 8. The settings on record: protein: recombinant; tags: C-terminal His; chain copies: 2; blunt. (A gel shift assay detects complexes by their altered migration in electrophoresis.)

B1: hmp promoter 80 bp (JC01_F/JC02_R) (dsDNA)
DNA 1: CGCCTTTCCATGCTTCATGGGTTAATTTCTACGGATTTAATCTAATTAAATAAATCCCAGGATCCAAGCAATTTGGCCTT
DNA 2: AAGGCCAAATTGCTTGGATCCTGGGATTTATTTAATTAGATTAAATCCGTAGAAATTAACCCATGAAGCATGGAAAGGCG
In the case of B1, the binding result in the data set with ArnR ([4Fe-4S] form) [1] was “binds”.

B2: hmp promoter 30 bp (JC05_F/JC06_R) (dsDNA)
DNA 1: GGATTTAATCTAATTAAATAAATCCCAGGA
DNA 2: TCCTGGGATTTATTTAATTAGATTAAATCC
For B2, the binding result with ArnR ([4Fe-4S] form) [2] was “binds”.
